What was measured:
EGFR-L858R = target: T1, EGFR-L858R (Homo sapiens, UniProt P00533, L858R); experiment: MaMTH EGFR-interactor screen, lentiviral preys against EGFR-L858R bait (interaction score); type: cell-based; settings: MaMTH interaction score of prey with EGFR-L858R bait
T1 construct: with the advantage of testing full-length integral membrane proteins; (GGGGS)2 linker-Cub (human ubiquitin aa 35-76)-GAL4(1-147)-mNFkB(364-550) (C); expressed in transfected cells
Procedure: (§1) After lentivirus harvest, target cells (stable 5×GAL4UAS-luciferase reporter-HEK293T cells) were infected at a multiplicity of infection (MOI) of around 0.3-0.4 to ensure single copy integration per cell. Cells were selected in puromycin for at least 48 h and transfected with either EGFR-wildtype or EGFR-L858R baits in triplicates. 24 h after transfection, cells were lysed and luciferase assays performed. On each set of interaction assays, various negative controls were included. To calculate a MaMTH-interaction scores, negative controls were averaged and the fold-change of luciferase activity compared to the averaged controls was calculated and defined as the interaction score.
(§2) Each set of experiments contains a defined set of negative controls in at least three replicates. Negative controls were chosen as such that there is a range of controls showing high-background luciferase activity (normally cytosolic proteins: Fabp5, Pex19) as well as medium-background luciferase activity (membrane-bound interactors: Pex7, GABBR2). Negative controls were averaged and the fold-change of luciferase activity was calculated. Using this method, we have a stringent cut-off and chose an interaction score >1 to be interacting proteins.
(§3) Our cut-off of 1 is based on fold-change difference in luciferase activity over averaged negative controls. Negative controls include cytosolic preys (which tend to promiscuously bind to many proteins), plasma membrane- and peroxisomal-prey proteins. In general, we chose stringent conditions by testing preys that tend to have high luciferase background with any bait tested, in order to generate high-confidence interaction data. […] Phosphorylated tyrosine residues on the receptor are typically docking sites for downstream cytoplasmic targets and recognized through SH2 or PTB domains^43.

EGFR-Wt [1] = experiment: MaMTH EGFR-interactor screen, lentiviral preys against EGFR-wildtype bait (interaction score); type: cell-based, human; settings: ratio of EGFR-Wt mean to EGFR-L858R mean interaction score
Procedure: as §1, §2, §3

EGFR-Wt [2] = target: T2, EGFR-Wt (Homo sapiens, UniProt P00533); experiment: as above; type: cell-based; settings: MaMTH interaction score of prey with EGFR-Wt bait, mean
T2 construct: with the advantage of testing full-length integral membrane proteins; (GGGGS)2 linker-Cub (human ubiquitin aa 35-76)-GAL4(1-147)-mNFkB(364-550) (C); expressed in transfected cells
Procedure: as §1, §2, §3

Row | Molecule | EGFR-L858R mean (EGFR-L858R) | Wt/L858R (EGFR-Wt [1]) | EGFR-Wt mean (EGFR-Wt [2])
1 | STAP2 (protein, UniProt Q9UGK3 1-403, looked up) Signal-transducing adaptor …: MASALRPPRVPKPKGVLPSHYYESFLEKKGPCDRDYKKFWAGLQGLTIYFYNSNRDFQHVEKLNLGAFEKLTDEIPWGSSRDPGTHFSLILRDQEIKFKVETLECREMWKGFILTVVELRVPTDLTLLPGHLYMMSEVLAKEEARRALETPSCFLKVSRLEAQLLLERYPECGNLLLRPSGDGADGVSVTTRQMHNGTHVVRHYKVKREGPKYVIDVEQPFSCTSLDAVVNYFVSHTKKALVPFLLDEDYEKVLGYVEADKENGENVWVAPSAPGPGPAPCTGGPKPLSPASSQDKLPPLPPLPNQEENYVTPIGDGPAVDYENQDVASSSWPVILKPKKLPKPPAKLPKPPVGPKPEPKVFNGGLGRKLPVSSAQPLFPTAGLADMTAELQKKLEKRRALEH | 1.49 | 1.86 | 2.76
2 | ITK (protein, UniProt Q08881 1-620, looked up) Tyrosine-protein kinase …: MNNFILLEEQLIKKSQQKRRTSPSNFKVRFFVLTKASLAYFEDRHGKKRTLKGSIELSRIKCVEIVKSDISIPCHYKYPFQVVHDNYLLYVFAPDRESRQRWVLALKEETRNNNSLVPKYHPNFWMDGKWRCCSQLEKLATGCAQYDPTKNASKKPLPPTPEDNRRPLWEPEETVVIALYDYQTNDPQELALRRNEEYCLLDSSEIHWWRVQDRNGHEGYVPSSYLVEKSPNNLETYEWYNKSISRDKAEKLLLDTGKEGAFMVRDSRTAGTYTVSVFTKAVVSENNPCIKHYHIKETNDNPKRYYVAEKYVFDSIPLLINYHQHNGGGLVTRLRYPVCFGRQKAPVTAGLRYGKWVIDPSELTFVQEIGSGQFGLVHLGYWLNKDKVAIKTIREGAMSEEDFIEEAEVMMKLSHPKLVQLYGVCLEQAPICLVFEFMEHGCLSDYLRTQRGLFAAETLLGMCLDVCEGMAYLEEACVIHRDLAARNCLVGENQVIKVSDFGMTRFVLDDQYTSSTGTKFPVKWASPEVFSFSRYSSKSDVWSFGVLMWEVFSEGKIPYENRSNSEVVEDISTGFRLYKPRLASTHVYQIMNHCWKERPEDRPAFSRLLRQLAEIAESGL | 0.94 | 2.35 | 2.21
3 | PTPN12 (protein, UniProt Q05209 1-780, looked up) Tyrosine-protein phosphatase …: MEQVEILRKFIQRVQAMKSPDHNGEDNFARDFMRLRRLSTKYRTEKIYPTATGEKEENVKKNRYKDILPFDHSRVKLTLKTPSQDSDYINANFIKGVYGPKAYVATQGPLANTVIDFWRMIWEYNVVIIVMACREFEMGRKKCERYWPLYGEDPITFAPFKISCEDEQARTDYFIRTLLLEFQNESRRLYQFHYVNWPDHDVPSSFDSILDMISLMRKYQEHEDVPICIHCSAGCGRTGAICAIDYTWNLLKAGKIPEEFNVFNLIQEMRTQRHSAVQTKEQYELVHRAIAQLFEKQLQLYEIHGAQKIADGVNEINTENMVSSIEPEKQDSPPPKPPRTRSCLVEGDAKEEILQPPEPHPVPPILTPSPPSAFPTVTTVWQDNDRYHPKPVLHMVSSEQHSADLNRNYSKSTELPGKNESTIEQIDKKLERNLSFEIKKVPLQEGPKSFDGNTLLNRGHAIKIKSASPCIADKISKPQELSSDLNVGDTSQNSCVDCSVTQSNKVSVTPPEESQNSDTPPRPDRLPLDEKGHVTWSFHGPENAIPIPDLSEGNSSDINYQTRKTVSLTPSPTTQVETPDLVDHDNTSPLFRTPLSFTNPLHSDDSDSDERNSDGAVTQNKTNISTASATVSAATSTESISTRKVLPMSIARHNIAGTTHSGAEKDVDVSEDSPPPLPERTPESFVLASEHNTPVRSEWSELQSQERSEQKKSEGLITSENEKCDHPAGGIHYEMCIECPPTFSDKREQISENPTEATDIGFGNRCGKPKGPRDPPSEWT | 1.20 | 2.20 | 2.64
4 | CTNNA1 (protein, UniProt P35221 2-906, looked up) Catenin alpha-1: TAVHAGNINFKWDPKSLEIRTLAVERLLEPLVTQVTTLVNTNSKGPSNKKRGRSKKAHVLAASVEQATENFLEKGDKIAKESQFLKEELVAAVEDVRKQGDLMKAAAGEFADDPCSSVKRGNMVRAARALLSAVTRLLILADMADVYKLLVQLKVVEDGILKLRNAGNEQDLGIQYKALKPEVDKLNIMAAKRQQELKDVGHRDQMAAARGILQKNVPILYTASQACLQHPDVAAYKANRDLIYKQLQQAVTGISNAAQATASDDASQHQGGGGGELAYALNNFDKQIIVDPLSFSEERFRPSLEERLESIISGAALMADSSCTRDDRRERIVAECNAVRQALQDLLSEYMGNAGRKERSDALNSAIDKMTKKTRDLRRQLRKAVMDHVSDSFLETNVPLLVLIEAAKNGNEKEVKEYAQVFREHANKLIEVANLACSISNNEEGVKLVRMSASQLEALCPQVINAALALAAKPQSKLAQENMDLFKEQWEKQVRVLTDAVDDITSIDDFLAVSENHILEDVNKCVIALQEKDVDGLDRTAGAIRGRAARVIHVVTSEMDNYEPGVYTEKVLEATKLLSNTVMPRFTEQVEAAVEALSSDPAQPMDENEFIDASRLVYDGIRDIRKAVLMIRTPEELDDSDFETEDFDVRSRTSVQTEDDQLIAGQSARAIMAQLPQEQKAKIAEQVASFQEEKSKLDAEVSKWDDSGNDIIVLAKQMCMIMMEMTDFTRGKGPLKNTSDVISAAKKIAEAGSRMDKLGRTIADHCPDSACKQDLLAYLQRIALYCHQLNICSKVKAEVQNLGGELVVSGVDSAMSLIQAAKNLMNAVVQTVKASYVASTKYQKSQGMASLNLPAVSWKMKAPEKKPLVKREKQDETQTKIKRASQKKHVNPVQALSEFKAMDSI | 1.34 | 1.58 | 2.11
5 | PLCG2 (protein, UniProt P16885 1-1265, looked up) 1-phosphatidylinositol …: MSTTVNVDSLAEYEKSQIKRALELGTVMTVFSFRKSTPERRTVQVIMETRQVAWSKTADKIEGFLDIMEIKEIRPGKNSKDFERAKAVRQKEDCCFTILYGTQFVLSTLSLAADSKEDAVNWLSGLKILHQEAMNASTPTIIESWLRKQIYSVDQTRRNSISLRELKTILPLINFKVSSAKFLKDKFVEIGAHKDELSFEQFHLFYKKLMFEQQKSILDEFKKDSSVFILGNTDRPDASAVYLHDFQRFLIHEQQEHWAQDLNKVRERMTKFIDDTMRETAEPFLFVDEFLTYLFSRENSIWDEKYDAVDMQDMNNPLSHYWISSSHNTYLTGDQLRSESSPEAYIRCLRMGCRCIELDCWDGPDGKPVIYHGWTRTTKIKFDDVVQAIKDHAFVTSSFPVILSIEEHCSVEQQRHMAKAFKEVFGDLLLTKPTEASADQLPSPSQLREKIIIKHKKLGPRGDVDVNMEDKKDEHKQQGELYMWDSIDQKWTRHYCAIADAKLSFSDDIEQTMEEEVPQDIPPTELHFGEKWFHKKVEKRTSAEKLLQEYCMETGGKDGTFLVRESETFPNDYTLSFWRSGRVQHCRIRSTMEGGTLKYYLTDNLTFSSIYALIQHYRETHLRCAEFELRLTDPVPNPNPHESKPWYYDSLSRGEAEDMLMRIPRDGAFLIRKREGSDSYAITFRARGKVKHCRINRDGRHFVLGTSAYFESLVELVSYYEKHSLYRKMRLRYPVTPELLERYNMERDINSLYDVSRMYVDPSEINPSMPQRTVKALYDYKAKRSDELSFCRGALIHNVSKEPGGWWKGDYGTRIQQYFPSNYVEDISTADFEELEKQIIEDNPLGSLCRGILDLNTYNVVKAPQGKNQKSFVFILEPKQQGDPPVEFATDRVEELFEWFQSIREITWKIDTKENNMKYWEKNQSIAIELSDLVVYCKPTSKTKDNLENPDFREIRSFVETKADSIIRQKPVDLLKYNQKGLTRVYPKGQRVDSSNYDPFRLWLCGSQMVALNFQTADKYMQMNHALFSLNGRTGYVLQPESMRTEKYDPMPPESQRKILMTLTVKVLGARHLPKLGRSIACPFVEVEICGAEYDNNKFKTTVVNDNGLSPIWAPTQEKVTFEIYDPNLAFLRFVVYEEDMFSDPNFLAHATYPIKAVKSGFRSVPLKNGYSEDIELASLLVFCEMRPVLESEEELYSSCRQLRRRQEELNNQLFLYDTHQNLRNANRDALVKEFSVNENQLQLYQEKCNKRLREKRVSNSKFYS | 2.43 | 1.64 | 3.99
6 | CTTN (protein, UniProt Q14247 1-550, looked up) Src substrate cortactin: MWKASAGHAVSIAQDDAGADDWETDPDFVNDVSEKEQRWGAKTVQGSGHQEHINIHKLRENVFQEHQTLKEKELETGPKASHGYGGKFGVEQDRMDKSAVGHEYQSKLSKHCSQVDSVRGFGGKFGVQMDRVDQSAVGFEYQGKTEKHASQKDYSSGFGGKYGVQADRVDKSAVGFDYQGKTEKHESQRDYSKGFGGKYGIDKDKVDKSAVGFEYQGKTEKHESQKDYVKGFGGKFGVQTDRQDKCALGWDHQEKLQLHESQKDYKTGFGGKFGVQSERQDSAAVGFDYKEKLAKHESQQDYSKGFGGKYGVQKDRMDKNASTFEDVTQVSSAYQKTVPVEAVTSKTSNIRANFENLAKEKEQEDRRKAEAERAQRMAKERQEQEEARRKLEEQARAKTQTPPVSPAPQPTEERLPSSPVYEDAASFKAELSYRGPVSGTEPEPVYSMEAADYREASSQQGLAYATEAVYESAEAPGHYPAEDSTYDEYENDLGITAVALYDYQAAGDDEISFDPDDIITNIEMIDDGWWRGVCKGRYGLFPANYVELRQ | 22.11 | 1.53 | 33.81
7 | LAT (protein, UniProt O43561 1-262, looked up) Linker for activation of …: MEEAILVPCVLGLLLLPILAMLMALCVHCHRLPGSYDSTSSDSLYPRGIQFKRPHTVAPWPPAYPPVTSYPPLSQPDLLPIPRSPQPLGGSHRTPSSRRDSDGANSVASYENEGASGIRGAQAGWGVWGPSWTRLTPVSLPPEPACEDADEDEDDYHNPGYLVVLPDSTPATSTAAPSAPALSTPGIRDSAFSMESIDDYVNVPESGESAEASLDGSREYVNVSQELHPGAAKTEPAALSSQEAEEVEEEGAPDYENLQELN | 18.39 | 1.61 | 29.54
